Source: PMC9035890

Assays:
[1] = molecular target: Recombinant biotinylated protein A (Thermo Fisher 29989) (UniProt P38507); test: SPR; Biacore T200, 25°C; biotinylated ligand captured on a CAP chip through the Biotin CAPture reagent; NISTmAb sample as analyte at 200 nmol/L in PBS-P+ pH 7.4, 50 μL/min, 100 s association, 300 s dissociation; response at the end of the association phase divided by that of NISTmAb Bex, mean of three independent experiments
[2] = molecular target: Recombinant biotinylated protein L (Thermo Fisher 21189) (UniProt Q51918); test: as above

binding relative to NISTmAb Bex [1] [%]	binding relative to NISTmAb Bex [2] [%]	Substance
94.7	99.3	NISTmAb oxidised in solution, 0.3% H2O2, 30 min (0.3%Nox0.5hr) (antibody)
38.5	92.6	NISTmAb oxidised in solution, 0.3% H2O2, 32 h (0.3%Nox32hr) (antibody)
